Changes are numbered by the printed parent chain. Values belong to the binder of their own block, whether it stands above or below them.
Target: T1, Human recombinant AXL-FND1 (GST-FND1), from pET-41b(+) (human, UniProt P30530 225-331)
T1 construct: Expressed in E. coli, purified on Glutathione Sepharose; analyte in all Biacore measurements; GST put first by the usual layout of pET-41; not shown: GST-tag of vector pET-41b(+) (Novagen)
T1 sequence (looked up): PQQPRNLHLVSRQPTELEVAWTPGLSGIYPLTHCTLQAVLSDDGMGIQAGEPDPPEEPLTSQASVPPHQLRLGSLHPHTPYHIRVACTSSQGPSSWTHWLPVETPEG
Assay: SPR (Biacore T100): antibody captured on Protein A, GST-FND1 as analyte
Experimental: Kinetic analyses of antigen-antibody reactions of humanized AXL antibodies were carried out using Biacore T100 (BIACORE). rec-Protein A (Zymed) (hereinafter, Protein A) was immobilized onto a sensor chip, various antibodies were bound to it, then an antigen as the analyte was flushed to measure the antibody-antigen interaction. Human recombinant AXL-FND1 (prepared in 2-2; hereinafter referred to as GST-FND1) prepared at various concentrations was used as the antigen. From the sensorgrams obtained through the measurements, kinetic parameters, namely binding rate constant kₐ (1/Ms) and dissociation rate constant kd (1/s), were calculated, and Kd (M) was calculated based on these values. Biacore T100 Evaluation Software (BIACORE) was used to calculate each of the parameters.
The sensor chips were produced by immobilizing approximately 3000 RU of Protein A onto CM5 (BIACORE) by amine coupling. Using the produced sensor chip, kinetic analyses were carried out on the interaction between the Protein A-bound antibodies and GST-FND1. HBS-EP+ was used as the running buffer, and the flow rate was set to 30 μL/min. Each antibody was prepared at 1 μg/mL using the running buffer, and was subjected to binding with Protein A for two minutes. GST-FND1 as the analyte was prepared at 0.5 and 2.0 μg/mL using HBS-EP+. Measurements were carried out by first binding the various humanized AXL antibodies, chimeric AXL antibodies, or mouse AXL antibodies of interest to Protein A, then applying an analyte solution to them for a two-minute interaction, and then switching to HBS-EP+ (BIACORE) for a two-minute measurement of the dissociation phase. After completion of measurement of the dissociation phase, 30 μL of 10 mM glycine-HCl (pH 2.0) was used for washing to regenerate the sensor chip. Such binding, dissociation, and regeneration were defined as one cycle of analysis. All experiments were performed at 25° C.
Affinity evaluation of each of the variants by Biacore was carried out by the method of Example 2.

B1: H17/L0 (antibody, human IgG1, kappa, V domains shown)
VH: QVTLKESGPVLVKPTETLTLTCTVSGFSLSDFGVDWVRQAPGKGLEWMGVIWGGGSTNYNSALKSRLTISKDNSKSQVVLTMTNMDPVDTATYYCAGEGSKYGAWFAYWGQGTLVTVSS
VL: DVVMTQSPLSLPVTLGQPASISCRSSQNIVHTNGNTYLEWYQQKPGKAPELLIYKVSNRFSGVPDRFSGSGSGTDFTLKISRVEAEDVGVYYCFQGSHIPFTFGQGTKLEIKR
- Kd: 3.46 nM

B2: H31/L11 (antibody, human IgG1, kappa)
heavy: not shown
light: DVVMTQSPLSLPVTLGQPASISCQSSQNIVHTNGNTYLEWYQQKPGKAPELLIYKVSNRFSGVPDRFSGSGSGTDFTLKISRVEAEDVGVYYCFQGSHIPFTFGQGTKVEIERTVAAPSVFIFPPSDEQLKSGTASVVCLLNNFYPREAKVQWKVDNALQSGNSQESVTEQDSKDSTYSLSSTLTLSKADYEKHKVYACEVTHQGLSSPVTKSFNRGEC
- Kd: 3.05 nM

B3: H33/L12 (antibody, human IgG1, kappa)
heavy: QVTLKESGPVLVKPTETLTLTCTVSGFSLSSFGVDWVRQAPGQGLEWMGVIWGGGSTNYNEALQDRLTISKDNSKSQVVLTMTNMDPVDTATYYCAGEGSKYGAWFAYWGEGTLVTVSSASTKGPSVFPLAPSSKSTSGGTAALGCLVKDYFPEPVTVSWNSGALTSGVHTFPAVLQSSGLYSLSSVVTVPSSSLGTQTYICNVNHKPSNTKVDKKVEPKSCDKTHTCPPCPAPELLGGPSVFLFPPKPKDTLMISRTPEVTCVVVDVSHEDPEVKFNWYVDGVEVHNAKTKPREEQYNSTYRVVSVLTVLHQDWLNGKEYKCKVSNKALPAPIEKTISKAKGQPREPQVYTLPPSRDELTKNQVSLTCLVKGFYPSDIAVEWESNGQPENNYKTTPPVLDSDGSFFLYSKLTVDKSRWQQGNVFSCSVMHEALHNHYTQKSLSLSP
light: B2 light with K47E
- Kd: 3.06 nM

B5: H32/L10 (antibody, human IgG1, kappa)
heavy: not shown
light: B2 light with Q24R
- Kd: 2.8 nM

B6: H26/L12 (antibody, human IgG1, kappa)
heavy: not shown
light: B2 light with K47E
- Kd: 2.79 nM

B7: H30/L0 (antibody, human IgG1, kappa)
heavy: not shown
light: B2 light with Q24R, V109L, E112K
- Kd: 2.7 nM

B8: H32/L0 (antibody, human IgG1, kappa)
heavy: not shown
light: B2 light with Q24R, V109L, E112K
- Kd: 2.82 nM

B9: H35/L0 (antibody, human IgG1, kappa, V domains shown)
VH: B1 VH with D31R
VL: B1 VL
- Kd: 3.65 nM

B11: H34/L0 (antibody, human IgG1, kappa, V domains shown)
VH: B1 VH with D31K
VL: B1 VL
- Kd: 5.94 nM

B14: H22/L0 (antibody, human IgG1, kappa, V domains shown)
VH: B1 VH with D31S, A62E
VL: B1 VL
- Kd: 3.14 nM

B15: H31/L12 (antibody, human IgG1, kappa)
heavy: not shown
light: B2 light with K47E
- Kd: 3.14 nM

B18: H32/L12 (antibody, human IgG1, kappa)
heavy: not shown
light: B2 light with K47E
- Kd: 2.64 nM

B21: H26/L11 (antibody, human IgG1, kappa)
heavy: not shown
light: B2 light
- Kd: 2.71 nM

B22: H28/L0 (antibody, human IgG1, kappa, V domains shown)
VH: B1 VH with D31S, S61E, A62E, K64Q, S65D
VL: B1 VL
- Kd: 2.94 nM

B23: H33/L11 (antibody, human IgG1, kappa)
heavy: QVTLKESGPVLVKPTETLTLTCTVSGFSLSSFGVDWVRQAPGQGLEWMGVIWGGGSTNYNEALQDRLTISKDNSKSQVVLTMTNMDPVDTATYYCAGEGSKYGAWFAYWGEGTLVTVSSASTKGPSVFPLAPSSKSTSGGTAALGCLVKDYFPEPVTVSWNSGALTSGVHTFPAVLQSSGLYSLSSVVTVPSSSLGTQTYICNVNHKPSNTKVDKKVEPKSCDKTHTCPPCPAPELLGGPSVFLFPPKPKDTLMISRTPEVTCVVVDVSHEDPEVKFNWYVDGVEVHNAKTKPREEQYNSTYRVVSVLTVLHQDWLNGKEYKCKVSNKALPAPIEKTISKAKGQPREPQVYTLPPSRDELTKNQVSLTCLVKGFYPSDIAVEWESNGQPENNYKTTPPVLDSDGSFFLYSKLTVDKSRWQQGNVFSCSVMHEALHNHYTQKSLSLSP
light: B2 light
- Kd: 3.06 nM

B26: H27/L0 (antibody, human IgG1, kappa, V domains shown)
VH: B1 VH with D31S, A62E, K64Q, S65D
VL: B1 VL
- Kd: 3.03 nM

B28: H32/L13 (antibody, human IgG1, kappa)
heavy: not shown
light: B2 light with K47Q
- Kd: 2.74 nM

B30: H32/L11 (antibody, human IgG1, kappa)
heavy: not shown
light: B2 light
- Kd: 2.74 nM

B33: H31/L10 (antibody, human IgG1, kappa)
heavy: not shown
light: B2 light with Q24R
- Kd: 3.03 nM

B34: H33/L13 (antibody, human IgG1, kappa, V domains shown)
VH: B1 VH with D31S, K43Q, S61E, K64Q, S65D, Q111E
VL: B1 VL with R24Q, K47Q, L109V, K112E
- Kd: 3.02 nM

B36: H20/L0 (antibody, human IgG1, kappa, V domains shown)
VH: B1 VH with D31S, A40P, K43E, M48I
VL: B1 VL
- Kd: 3.21 nM

B37: H18/L0 (antibody, human IgG1, kappa, V domains shown)
VH: B1 VH with D31E
VL: B1 VL
- Kd: 4.31 nM

B38: H33/L0 (antibody, human IgG1, kappa)
heavy: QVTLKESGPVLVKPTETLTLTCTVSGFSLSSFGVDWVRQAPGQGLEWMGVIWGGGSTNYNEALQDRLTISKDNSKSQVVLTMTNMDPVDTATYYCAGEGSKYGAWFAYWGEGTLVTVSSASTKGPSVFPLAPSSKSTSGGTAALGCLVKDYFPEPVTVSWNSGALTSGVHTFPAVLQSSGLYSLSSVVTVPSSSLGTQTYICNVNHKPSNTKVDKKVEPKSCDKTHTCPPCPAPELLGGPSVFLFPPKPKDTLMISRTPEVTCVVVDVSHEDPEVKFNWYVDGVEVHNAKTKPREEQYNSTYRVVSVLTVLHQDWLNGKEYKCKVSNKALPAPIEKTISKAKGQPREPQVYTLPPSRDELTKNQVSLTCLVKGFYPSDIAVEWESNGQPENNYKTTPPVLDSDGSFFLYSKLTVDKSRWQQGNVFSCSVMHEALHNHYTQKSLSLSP
light: B2 light with Q24R, V109L, E112K
- Kd: 3.04 nM

Other lines, results leading:

- Kd: 2.03 nM
B4: H36/L1 (antibody, human IgG1, kappa)
heavy: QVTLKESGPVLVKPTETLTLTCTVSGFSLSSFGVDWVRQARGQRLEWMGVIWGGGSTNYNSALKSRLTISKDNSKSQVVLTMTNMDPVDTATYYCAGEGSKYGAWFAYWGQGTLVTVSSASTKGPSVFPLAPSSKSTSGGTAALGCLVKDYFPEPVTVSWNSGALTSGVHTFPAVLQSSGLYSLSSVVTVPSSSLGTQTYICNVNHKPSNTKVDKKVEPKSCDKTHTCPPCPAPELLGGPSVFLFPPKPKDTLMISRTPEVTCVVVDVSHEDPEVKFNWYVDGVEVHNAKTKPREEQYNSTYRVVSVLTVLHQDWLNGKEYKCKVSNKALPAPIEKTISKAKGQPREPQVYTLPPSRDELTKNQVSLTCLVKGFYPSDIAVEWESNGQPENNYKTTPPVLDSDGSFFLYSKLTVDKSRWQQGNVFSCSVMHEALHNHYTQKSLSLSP
light: B2 light with V109L, E112K

- Kd: 1.94 nM
B10: H36/L27 (antibody, human IgG1, kappa)
heavy: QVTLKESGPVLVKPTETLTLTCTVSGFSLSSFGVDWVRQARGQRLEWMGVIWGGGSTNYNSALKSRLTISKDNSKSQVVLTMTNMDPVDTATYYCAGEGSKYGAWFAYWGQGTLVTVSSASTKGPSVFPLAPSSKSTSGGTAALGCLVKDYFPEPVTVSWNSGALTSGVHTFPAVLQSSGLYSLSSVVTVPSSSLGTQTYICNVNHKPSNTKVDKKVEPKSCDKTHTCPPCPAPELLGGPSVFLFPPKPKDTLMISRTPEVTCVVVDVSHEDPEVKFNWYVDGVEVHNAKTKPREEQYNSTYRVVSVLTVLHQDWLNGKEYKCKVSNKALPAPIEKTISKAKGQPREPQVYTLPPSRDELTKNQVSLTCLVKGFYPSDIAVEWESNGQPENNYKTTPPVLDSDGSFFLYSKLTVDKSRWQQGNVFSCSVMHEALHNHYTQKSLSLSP
light: B2 light with Q24R, Q27R, V109L, E112K

- Kd: 1.95 nM
B12: H36/L28 (antibody, human IgG1, kappa)
heavy: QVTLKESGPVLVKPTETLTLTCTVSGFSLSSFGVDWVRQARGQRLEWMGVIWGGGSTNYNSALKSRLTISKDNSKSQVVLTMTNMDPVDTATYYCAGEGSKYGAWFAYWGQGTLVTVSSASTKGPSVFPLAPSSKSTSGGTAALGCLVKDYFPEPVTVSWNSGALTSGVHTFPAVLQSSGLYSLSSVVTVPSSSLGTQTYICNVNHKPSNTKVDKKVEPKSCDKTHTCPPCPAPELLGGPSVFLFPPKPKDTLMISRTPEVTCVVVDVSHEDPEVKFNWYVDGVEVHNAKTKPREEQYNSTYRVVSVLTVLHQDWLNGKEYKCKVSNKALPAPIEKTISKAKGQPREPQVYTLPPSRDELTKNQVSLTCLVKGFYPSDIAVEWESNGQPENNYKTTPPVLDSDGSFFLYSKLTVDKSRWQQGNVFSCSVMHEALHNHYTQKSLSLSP
light: B2 light with Q24R, E50K, V109L, E112K

- Kd: 2.54 nM
B13: H31/L0 (antibody, human IgG1, kappa)
heavy: not shown
light: B2 light with Q24R, V109L, E112K

- Kd: 1.87 nM
B16: H36/L10 (antibody, human IgG1, kappa)
heavy: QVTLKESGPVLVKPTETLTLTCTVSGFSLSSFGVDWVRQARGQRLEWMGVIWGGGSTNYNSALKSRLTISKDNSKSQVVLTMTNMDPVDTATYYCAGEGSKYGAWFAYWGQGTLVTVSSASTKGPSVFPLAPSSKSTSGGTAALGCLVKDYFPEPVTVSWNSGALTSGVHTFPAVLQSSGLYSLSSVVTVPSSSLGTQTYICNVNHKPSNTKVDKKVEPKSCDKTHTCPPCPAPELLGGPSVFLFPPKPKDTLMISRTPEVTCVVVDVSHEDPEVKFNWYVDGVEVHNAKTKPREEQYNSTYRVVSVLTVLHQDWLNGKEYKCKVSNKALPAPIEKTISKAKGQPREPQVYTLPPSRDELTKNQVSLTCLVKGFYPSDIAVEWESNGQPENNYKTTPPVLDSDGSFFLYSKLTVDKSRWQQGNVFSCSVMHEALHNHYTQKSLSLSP
light: B2 light with Q24R

- Kd: 2.38 nM
B17: H26/L10 (antibody, human IgG1, kappa)
heavy: not shown
light: B2 light with Q24R

- Kd: 2.5 nM
B19: H25/L0 (antibody, human IgG1, kappa, V domains shown)
VH: B1 VH with D31S, K64Q, S65D
VL: B1 VL

- Kd: 2.5 nM
B20: H26/L0 (antibody, human IgG1, kappa)
heavy: not shown
light: B2 light with Q24R, V109L, E112K

- Kd: 2.5 nM
B24: H26/L13 (antibody, human IgG1, kappa)
heavy: not shown
light: B2 light with K47Q

- Kd: 2.01 nM
B25: H36/L34 (antibody, human IgG1, kappa)
heavy: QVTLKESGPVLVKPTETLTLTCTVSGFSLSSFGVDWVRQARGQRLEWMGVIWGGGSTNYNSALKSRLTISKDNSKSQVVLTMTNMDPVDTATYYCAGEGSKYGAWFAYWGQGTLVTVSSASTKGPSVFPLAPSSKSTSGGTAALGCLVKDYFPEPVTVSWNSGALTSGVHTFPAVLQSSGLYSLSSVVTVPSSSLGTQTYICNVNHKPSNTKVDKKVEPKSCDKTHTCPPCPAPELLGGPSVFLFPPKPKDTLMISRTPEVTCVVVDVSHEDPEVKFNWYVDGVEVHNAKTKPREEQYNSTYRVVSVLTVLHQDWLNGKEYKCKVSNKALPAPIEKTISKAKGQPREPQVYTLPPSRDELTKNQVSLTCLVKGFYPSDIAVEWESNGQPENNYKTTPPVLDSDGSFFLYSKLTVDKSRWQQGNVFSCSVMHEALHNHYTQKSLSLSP
light: B2 light with Q17R, Q24R, Q27R, E50K, V109L, E112K

- Kd: 2.35 nM
B27: H21/L0 (antibody, human IgG1, kappa, V domains shown)
VH: B1 VH with D31S, S61E
VL: B1 VL

- Kd: 1.96 nM
B29: H36/L0 (antibody, human IgG1, kappa)
heavy: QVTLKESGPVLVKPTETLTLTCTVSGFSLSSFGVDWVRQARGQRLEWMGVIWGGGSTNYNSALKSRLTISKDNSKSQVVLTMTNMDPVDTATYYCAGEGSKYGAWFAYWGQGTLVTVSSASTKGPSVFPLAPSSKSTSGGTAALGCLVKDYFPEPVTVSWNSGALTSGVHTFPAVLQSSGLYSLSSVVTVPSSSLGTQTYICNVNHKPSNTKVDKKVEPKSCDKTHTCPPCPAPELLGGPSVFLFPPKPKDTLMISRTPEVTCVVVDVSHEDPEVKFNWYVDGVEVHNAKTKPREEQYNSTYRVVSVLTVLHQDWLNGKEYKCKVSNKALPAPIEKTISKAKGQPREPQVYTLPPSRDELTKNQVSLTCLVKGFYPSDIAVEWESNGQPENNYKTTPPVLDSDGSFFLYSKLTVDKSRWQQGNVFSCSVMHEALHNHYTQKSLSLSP
light: B2 light with Q24R, V109L, E112K

- Kd: 2.08 nM
B31: H36/L11 (antibody, human IgG1, kappa)
heavy: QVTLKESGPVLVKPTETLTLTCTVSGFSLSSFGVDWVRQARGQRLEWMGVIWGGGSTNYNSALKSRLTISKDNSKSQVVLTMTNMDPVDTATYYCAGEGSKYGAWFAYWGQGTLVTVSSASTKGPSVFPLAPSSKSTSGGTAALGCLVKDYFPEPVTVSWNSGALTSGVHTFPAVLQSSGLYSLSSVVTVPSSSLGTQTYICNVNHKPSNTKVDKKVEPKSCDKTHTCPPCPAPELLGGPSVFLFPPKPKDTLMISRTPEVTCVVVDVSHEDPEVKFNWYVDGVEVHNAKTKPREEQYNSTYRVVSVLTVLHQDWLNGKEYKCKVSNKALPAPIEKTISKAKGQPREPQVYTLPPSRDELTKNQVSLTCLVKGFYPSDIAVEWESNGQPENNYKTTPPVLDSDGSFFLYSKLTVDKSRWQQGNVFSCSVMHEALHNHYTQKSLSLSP
light: B2 light

- Kd: 1.67 nM
B32: H36/L31 (antibody, human IgG1, kappa)
heavy: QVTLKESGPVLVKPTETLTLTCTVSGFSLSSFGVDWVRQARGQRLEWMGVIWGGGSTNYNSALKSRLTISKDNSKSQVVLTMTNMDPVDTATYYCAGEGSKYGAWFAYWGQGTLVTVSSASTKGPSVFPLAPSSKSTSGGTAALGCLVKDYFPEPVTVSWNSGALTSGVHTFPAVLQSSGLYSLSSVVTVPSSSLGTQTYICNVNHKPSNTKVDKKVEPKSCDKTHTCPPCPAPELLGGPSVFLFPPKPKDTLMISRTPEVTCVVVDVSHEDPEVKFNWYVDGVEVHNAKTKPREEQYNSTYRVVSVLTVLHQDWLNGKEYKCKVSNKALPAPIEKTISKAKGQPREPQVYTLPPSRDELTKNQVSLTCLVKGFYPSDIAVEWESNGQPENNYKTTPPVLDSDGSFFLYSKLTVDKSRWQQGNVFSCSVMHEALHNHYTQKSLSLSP
light: B2 light with Q24R, Q27R, E50K, V109L, E112K

- Kd: 2.63 nM
B35: H19/L0 (antibody, human IgG1, kappa, V domains shown)
VH: B1 VH with D31S, K43Q
VL: B1 VL

- Kd: 2.56 nM
B39: H24/L0 (antibody, human IgG1, kappa, V domains shown)
VH: B1 VH with D31S, S65D
VL: B1 VL

- Kd: 2.39 nM
B40: H23/L0 (antibody, human IgG1, kappa, V domains shown)
VH: B1 VH with D31S, K64Q
VL: B1 VL

Source: US20120121587A1 (Chugai, published 2012)
